# Experiment: soluble on expression in E. coli; label from the status in PepcDB or PDB records
row,Sequence,soluble on expression in E. coli
1,MSVNGAFSPCVVIPCYNHGAMMASVLVRLAPLALPVFIVDDGSDAATQHVLNLLAAENDGVTLIRLANNSGKGAAVMRGIEAVAQAGFSHALQVDADGQHQIEDAPLLLDEAKTHPDCLISGRPRYDDSVPKSRLYGRYVTHVWVWIETLSLSIKDSMCGFRVYPVAATVSLLSRKSLGRRMDFDTEIMVRLYWAGTPSRFIETAVTYPENGLSHFDALHDNLRISWMHTRLFFGMLPRIPVLLMRQRQQHWAGVSERKGLLGMRFMLAVYQRLGRGVFTLFLWPVIAFYWLTGRTARKASQSWLRQIGEYAHQQDILLPKPLNSYHHFLRFGQAMLDKIASWRGDLHWGRDIDFAPGAQEAIEHGRQKGQLILASHLGDIEVCRALAPQVSGLVINALVFTENSQRFKQVLEEIAPQAGVNLIPVSNIGPDTAIMLQQKLDAGEWVAIVGDRTAVHRQRGGVRRVVWSPFLGKEAPFPQGPFVLAAALRCPVLLMFVIREQKKLRVYCEPFADSITLPRPTRQQALQQVVDRYAERLAHYALKSPLDWFNFFDFWSLPDDDGRTAGKKESLEHHHHHH,not soluble
2,MVNLANVLTNATAATLSAWSNTVPLETYFHFDEASGFGDYYLNVSVIWMNETLYETRIVPAIINVREWLDHMEANDPSPSVTNPYETSGYYAFSTVVPVLMGNMKVA,not soluble
3,MSLSSMLPSISPELARIAPGFRALSINVIAAPVRDAQVGEIALKEACQAVINGQPAWAQAHIDAWNAVFKAFGAKPKRTPCSAEALRKRVLKDGTMAALDPVVDLYNAVSLRYAVPVGGENSAAYCGSPRLVFADGSETFDTLKEGKPVTESPEPGEVIWRDDRGVTCRRWNWRQGVRTRLSASDKMMWFILESLPEMPVDELYAAENMLTDGLEKMMPGLRFESTLIGVEGHHHHHH,not soluble
4,MTMPYYASAEQIMRDRSELARKGIARGRSVVVLTFRDGVLFVAENPSTALHKVSELYDRLGFAAVGKYNEFENLRRAGIVHADMRGYSYDRRDVTGRSLANAYAQTLGTIFTEQPKPYEVEICVAEVGRVGSPKAPQLYRITYDGSIVDEQHFVVMGGTTEPIATAMRESYRADLDLEAAVGIAVNALRQGGAGEGEKRNVDVASLEVAVLDQSRPRRAFRRIAGTALEQLVPAEPAAASESAPEPKPDTETKPADTQD,soluble
5,MGSDKIHHHHHHMATLSTVPRIHYLRVQNFRALRNIELKNITPLTVLLGPNGSGKTTLFDVFNFLSECFQGGLRQAWDKRGRAKELKTRGADGPVVIEIKYRESKATPLITYHLSIDEGPKGPVVAEEWLAWTRGTQGRPWRFLDYRLGKGVVVGGELPDEKDERLDVPLRSAELLAVNTLGQIAQHPRVAALRDFITDWYVSYLSVDNTRTQPEAGPMEQLSKTGDNLPNVIQYLQETHPEQLQSITEVLRRRIPRLERIDATPMPDGRLLLEVKDAPFDKPVLSKFASDGTLKMLAYLTVLYDPEPPRFIGIEEPENFLHPRLLPELGEECRHASERTQLLVTTHSPFFLNSCRPDEVRILFRDEQGHTQVRTAADIEGIPEFVAAGASLGHLWIEGQFGMSDPLRNQGAPWTIEGARRGH,not soluble
6,GAMSEAFHTHSGIGVPLRRSNVDTDQIIPAVFLKRVTRTGFEDGLFAGWRSDPAFVLNLSPFDRGSVLVAGPDFGTGSSREHAVWALMDYGFRVVISSRFGDIFRGNAGKAGLLAAEVAQDDVELLWKLIEQSPGLEITANLQDRIITAATVVLPFKIDDHSAWRLLEGLDDIALTLRKLDEIEAFEGA,soluble
7,MGSDKIHHHHHHMSLLKVQNLTKEFPLGFFGKERLKAVDDVSFEIERSRIVSLIGESGSGKTTVGKLILKLIRPSSGQILLNGRDITQIKGRELREYYRKVQGVFQDPFSSFNPIYKIDRVLDMVFEEFFPDTPASERRTKMEEVIASVGMNPREILGKYPHQLSGGQLQRILIARTLLLNVELLIADEIISMLDASTRVDILNLLGDLRERGMSVIFITHDLSLGYYISDETFIMYRGNIVEMGDTEKVFHNPIHPYTKMLLESVPEIDRKWDLSKRFIPELVSSSNAPCKYYDRCPIRDERCLVQKPAMVEVEENHKVLCLKAGD,not soluble
8,MSLVIRRLYQFCASHVVRNCSSLKCAQNIHGHNYEVEVFIETNRLDNANMALDFGLMQQEMQVFIESFDHAHHFWDKESLEFQRFIENHCVRYVKCSFNLSAESYALMFLYYLTKILQKSVFSNDEGELKVSSVRVHETKNGYAESFLKDEGHHHHHH,soluble
9,MTESTFPQYPRLVLSKGREKSLLRRHPWVFSGAVSRLEGKANLGETIDIVDHQGKWLARGAWSPASQIRARVWTFDKAESIDIAFFTRRLRQAQQWRDWLAKKDGLDSYRLIAGESDGLPGVTIDRFGHFLVLQLLSAGAEYQRAALISALQTCYPDCAIYDRSDVAVRKKEGMALTQGPVTGELPPALLPIEEHGMKLLVDIQGGHKTGYYLDQRDSRLATRRYVENQRVLNCFSYTGGFAVSALMGGCRQVVSVDTSQDALDIARQNVELNQLDLSKAEFVRDDVFKLLRAYREHGEKFDVIIMDPPKFVENKSQLMGACRGYKDINMLAIQLLNPGGILLTFSCSGLMTSDLFQKIIADAAIDAGRDVQFIEQFRQAADHPVIATYPEGLYLKGFACRVM,not soluble
10,MPVAHVALPVPLPRTFDYLLPEGMAVKAGCRVRVPFGKQQERIGVVVSVSDVSELPLNELKAVVEVLDSEPVFTHSVWRLLLWAADYYHHPIGDVLFHALPILLRQGRPAANAPMWYWFATEQGHAVDLNSLKRSPKQQQALAALRQGKIWRDQVATLEFNDAALQALRKKGLCDLASETPEFSDWRTNYAVSGERLRLNTEQATAVGAIHSAADTFSAWLLAGVTGSGKTEVYLSVLENVLAQGKQALVMVPEIGLTPQTIARFRERFNAPVEVLHSGLNDSERLSAWLKAKNGEAAIVIGTRSALFTPFKNLGVIVIDEEHDSSYKQQEGWRYHARDLAVYRAHSEQIPIILGSATPALETLCNVQQKKYRLLRLTRRAGNARPAIQHVLDLKGQKVQAGLAPALITRMRQHLQADNQVILFLNRRGFAPALLCHDCGWIAECPRCDHYYTLHQAQQHLRCHHCDSQRPVPRQCPSCGSTHLVPVGLGTEQLEQTLAPLFPGVPISRIDRDTTSRKGALEQQLAEVHRGGARILIGTQMLAKGHHFPDVTLVALLDVDGALFSADFRSAERFAQLYTQVAGRAGRAGKQGEVVLQTHHPEHPLLQTLLYKGYDAFAEQALAERRMMQLPPWTSHVIVRAEDHNNQHAPLFLQQLRNLILSSPLADDKLWVLGPVPALAPKRGGRWRWQILLQHPSRVRLQHIINGTLALINTIPDSRKVKWVLDVDPIEG,not soluble
11,MGSDKIHHHHHHMFSMTKDWREQRILDSSEFTHADWLQAAQRIVILGRLNEDELTRLFELATLFLADKSITGAQGFEITDAVKQSIALQACLPILNLSLEWYAGWSAIIIYPGSYKSETTTVDELGIVHEGSQHRSGEAWLRGPVILSWKDAKHSGERDGHNVVIHEFVHKLDMLNGRANGFPPLQPDMDPVRWTEIMTRDFEDFQSHHKSGFDRYGATNPAEFFAVLSEVFFETPQKLIDAYPDIYEIMVKFFRQTPLEPRP,not soluble
12,FNCNKREGPCSQRSLCECDPNLQLGRHSDQLWHYNLRTNRCERGGYRDNCNSHSSSGACVMACERIHHHHHH,soluble
13,MGSDKIHHHHHHMLNMSNVPNDSVEEDGRLPTGKLPSAIGKNHRIAVVDTHFHLWKSQEIAPPSGIMADPSLFRDFDWSDYELAMQGVALEAAIHVQVHHGSEKAKSEYGRVERFAAEHAPIAGMIAWAPLESPGVEREIAELAQSPLVAGVRRLTQQEPDELFCARPQFVAGAKLLASYGLVCEVCVLEHQLKGVIALASACPELTIILDHLGKPHLAEPPTEHWLENMRILGMLENVVCKVAPTPLWASDPPLTAAHAAPFIEYVAEHFGWDRLIYGSNWPPLRILTDDASQWADIVFKTLHWAKADELGRLFSENARRIFRLNKGHR,not soluble
14,MSLFEQLDELAAQGKPAALLTIVRKDGSAPRDVGDKMIVTADEEYGTIGGGTVEHLAVQDARSVLSGADDPGIRTYELERGGNTGMVCGGEMDVFIDHVRGQAQLYIAGGGHISVELAPLAERLGYAVTVVDDREAYADPTQFPDETDVIHGEYGEALGDLPMGTETAVAVATRSGTFDQAAVAAALDGEAGYVGLVASETKANHVLDSLAESGYARRDLSRVQTPVGLDLGGSGPAAVALSVLAEVTMDRHDATGARATRLNLDDLVVVRGGGDLGSGVVYRLQQAGFPVIVTEVDQPTVVRRAVAFGAALYEDEVEVEGVTGRAAADIDEALELLADDVVPVLVDPEATVADDLDAAVLVDAIMAKGAFDTGTRREDADVVVGMGPGFEAGEDVDAVVETDRGHELGRVFYDGTASEYDGEPGERRGYTHERVLRAPTDGEWTPTVAIGDSVTAGDVVGTVGDRPVETEIDGLVRGLVHGGLSVSEGTKLGDVDPRGESVDPTKISDKALCLGGGVLEAVLRLRLEHHHHHH,not soluble
15,MGSDKIHHHHHHMINQVYRLVSERQFEEANIEEALTEDVVVVRPTYLSICAADQRYYTGSRGKEMLSKKLPMALIHEGVGQVTYDATGEFEIGTKVVMIPNTPTEDDPVIAENYRRSSLFRSSGYDGLMQENVFMRRDRVVRLPENMDMEVAAYSELISVAFHAITRFKQKANANQSVFGVWGDGNLGFITCLLLKTIYPESKVIIFGKTQYKLDFFSFVDEAHLVDEIPEGLVIDNAFECAGGKGSQYAVEQIIDLIKPEGTISLLGVSENPIEFNSRMVLEKGLTVFGSSRSGKEDFQNTVNFLSENERAVEYLSSLIGQRKVVRNLQDIIEAFETDLRNPFGKTVMEWKV,not soluble
16,MRGSHHHHHHGMASMTGGQQMGRDLYDDDDKDHPFTMADQAPFDTDVNTLTRFVMEEGRKARGTGELTQLLNSLCTAVKAISSAVRKAGIAHLYGIAGSTNVTGDQVKKLDVLSNDLVMNMLKSSFATCVLVSEEDKHAIIVEPEKRGKYVVCFDPLDGSSNIDCLVSVGTIFGIYRKKSTDEPSEKDALQPGRNLVAAGYALYGSATMLVLAMDCGVNCFMLDPAIGEFILVDKDVKIKKKGKIYSLNEGYAKDFDPAVTEYIQRKKFPPDNSAPYGARYVGSMVADVHRTLVYGGIFLYPANKKSPNGKLRLLYECNPMAYVMEKAGGMATTGKEAVLDVIPTDIHQRAPVILGSPDDVLEFLKVYEKHSAQ,soluble
17,MSLEAKVDKPRLNQEQAIAIAAVNSQQGFGCFLLEGVTGSGKTEVYLNLITPVLARGEQALVLVPEIGLTPQTINRFRQRFNVPVEVMHSALNDTERLNAWLAARDKVAGIVIGTRSALLTPFAKLGIIIVDEEHDSSYKQQDSLRYHARDVAVMRAHLENIPIVLGSATPALETLHNALSGKYHHLQLTQRAGNALPTRNHALDVKGLYLESGLSAPLIAEMRRHLSAGNQVMLFLNRRGFSPALMCHECGWIAECQRCDAYYTYHQHSNEMRCHHCGSQRPVLHQCKGCGSTQLVTVGVGTEQLEAQLHTLFPEYRSVRIDRDSTRRKGSLESALTAIRKGEYQILIGTQMLAKGHHFPDVTLVALLDVDGSLYSSDFRASERLAQLFIQVAGRAGRASKPGEVVLQTHHPEHSLLQALLHKDYHHFALTALEERKLAQLPPYSFLSLFRAEANHTAQVEDFLRQVRETLRCNPWFDSECMVLGPTPAPLAKRAGKFRWQLLLQTPNRTLMQKILQSARPALQQLPLASKVRWSIDIDPQDLSEGHHHHHH,not soluble
18,MAHHHHHHMGTLEAQTQGPGSMREVLVPYAGVSPSVDSTAFIAGNARIIGDVCIGKNASIWYGTVLRGDVDKIEVGEGTNIQDNTVVHTDSMHGDTVIGKFVTIGHSCILHACTLGNNAFVGMGSIVMDRAVMEEGSMLAAGSLLTRGKIVKSGELWAGRPAKFLRMMTEEEILYLQKSAENYIALSRGYL,soluble

# Source: the DeepSol protein solubility set
